Drawing on publication PMC4911631, this text covers maximal electron transfer rate to PRX1 and reduction of PRX1 by CRX (NADPH oxidation) without Ca2+ (EGTA added) against with Ca2+ for two substances.

The target of test [1] is PRX1, recombinant (Chlamydomonas reinhardtii).
Test [2] shares this target. The source holds these as a separate data set.

For the substance “calredoxin (CRX) Lys263Ile, recombinant (enzyme)”, the maximal electron transfer rate to PRX1 at saturating Ca2+ against WT CRX (Supplementary Fig. 1b) in test [1] came out at 3 fold. Take “calredoxin (CRX), wild type, recombinant (enzyme)”: the reduction of PRX1 by CRX (NADPH oxidation) without Ca2+ (EGTA added) against with Ca2+ in test [2] turned out to be 10 fold.
